Earlier results, collected in patent US9522171B2 (priority 2010, dated 2016).

Tests used:
C5 [1] = target: T1, C5 (Rattus norvegicus, UniProt P08650); conditions: rat serum; cited from earlier work
T1 construct: from tissue; host or cells: rat serum

C5 [2] = target: T2, C5 (Mus musculus, UniProt P06684); conditions: mouse serum; cited from earlier work
T2 construct: from tissue; host or cells: mouse serum

C5 [3] = target: T3, C5 (Homo sapiens, UniProt P01031); conditions: human serum; cited from earlier work
T3 construct: from tissue; host or cells: human serum
T3 sequence (P01031 19-1676): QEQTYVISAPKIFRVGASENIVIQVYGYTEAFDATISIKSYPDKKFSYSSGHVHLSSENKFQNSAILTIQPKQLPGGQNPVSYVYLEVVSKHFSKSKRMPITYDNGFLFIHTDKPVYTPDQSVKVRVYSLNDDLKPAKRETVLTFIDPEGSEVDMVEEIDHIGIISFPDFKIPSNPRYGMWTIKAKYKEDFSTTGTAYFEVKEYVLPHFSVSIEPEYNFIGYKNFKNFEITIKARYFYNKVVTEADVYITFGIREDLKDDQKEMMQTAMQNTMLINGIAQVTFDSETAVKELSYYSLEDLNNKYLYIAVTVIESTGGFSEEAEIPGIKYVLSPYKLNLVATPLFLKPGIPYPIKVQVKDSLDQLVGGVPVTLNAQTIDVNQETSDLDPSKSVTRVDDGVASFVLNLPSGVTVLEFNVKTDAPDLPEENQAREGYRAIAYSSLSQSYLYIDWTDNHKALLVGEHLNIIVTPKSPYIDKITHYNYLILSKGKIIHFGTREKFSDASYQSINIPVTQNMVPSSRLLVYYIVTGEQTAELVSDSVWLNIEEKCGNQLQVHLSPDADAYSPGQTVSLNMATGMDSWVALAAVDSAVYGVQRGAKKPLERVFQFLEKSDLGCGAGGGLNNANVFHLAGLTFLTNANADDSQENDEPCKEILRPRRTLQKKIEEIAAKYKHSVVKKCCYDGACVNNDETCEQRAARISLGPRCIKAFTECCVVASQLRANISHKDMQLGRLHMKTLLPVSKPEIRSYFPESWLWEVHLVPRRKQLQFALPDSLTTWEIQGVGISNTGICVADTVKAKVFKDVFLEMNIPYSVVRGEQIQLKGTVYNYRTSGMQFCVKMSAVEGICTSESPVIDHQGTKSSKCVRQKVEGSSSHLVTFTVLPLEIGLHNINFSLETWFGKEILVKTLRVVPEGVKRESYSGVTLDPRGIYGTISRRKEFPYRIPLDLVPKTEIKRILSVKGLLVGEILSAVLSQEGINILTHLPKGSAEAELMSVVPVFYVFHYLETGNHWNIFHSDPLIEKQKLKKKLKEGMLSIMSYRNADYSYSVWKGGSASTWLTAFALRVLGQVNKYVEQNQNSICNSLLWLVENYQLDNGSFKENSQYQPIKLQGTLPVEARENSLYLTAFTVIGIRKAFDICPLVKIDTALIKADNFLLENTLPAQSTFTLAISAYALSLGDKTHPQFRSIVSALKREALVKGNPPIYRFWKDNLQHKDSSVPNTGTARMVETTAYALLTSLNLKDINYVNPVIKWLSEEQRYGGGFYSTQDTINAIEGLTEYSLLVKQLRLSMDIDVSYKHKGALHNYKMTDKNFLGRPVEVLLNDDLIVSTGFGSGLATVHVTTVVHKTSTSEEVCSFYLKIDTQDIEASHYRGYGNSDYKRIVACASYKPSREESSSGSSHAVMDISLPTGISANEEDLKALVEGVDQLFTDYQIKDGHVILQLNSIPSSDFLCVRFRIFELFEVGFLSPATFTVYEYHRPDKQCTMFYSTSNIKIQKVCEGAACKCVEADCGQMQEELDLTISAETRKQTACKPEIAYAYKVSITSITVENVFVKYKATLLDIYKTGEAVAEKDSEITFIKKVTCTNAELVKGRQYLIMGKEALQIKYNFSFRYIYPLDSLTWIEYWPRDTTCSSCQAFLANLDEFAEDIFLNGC

[4] = system: alternative, classical and lectin complement pathways; conditions: cited from earlier work

T2 sequence (P06684 19-1680): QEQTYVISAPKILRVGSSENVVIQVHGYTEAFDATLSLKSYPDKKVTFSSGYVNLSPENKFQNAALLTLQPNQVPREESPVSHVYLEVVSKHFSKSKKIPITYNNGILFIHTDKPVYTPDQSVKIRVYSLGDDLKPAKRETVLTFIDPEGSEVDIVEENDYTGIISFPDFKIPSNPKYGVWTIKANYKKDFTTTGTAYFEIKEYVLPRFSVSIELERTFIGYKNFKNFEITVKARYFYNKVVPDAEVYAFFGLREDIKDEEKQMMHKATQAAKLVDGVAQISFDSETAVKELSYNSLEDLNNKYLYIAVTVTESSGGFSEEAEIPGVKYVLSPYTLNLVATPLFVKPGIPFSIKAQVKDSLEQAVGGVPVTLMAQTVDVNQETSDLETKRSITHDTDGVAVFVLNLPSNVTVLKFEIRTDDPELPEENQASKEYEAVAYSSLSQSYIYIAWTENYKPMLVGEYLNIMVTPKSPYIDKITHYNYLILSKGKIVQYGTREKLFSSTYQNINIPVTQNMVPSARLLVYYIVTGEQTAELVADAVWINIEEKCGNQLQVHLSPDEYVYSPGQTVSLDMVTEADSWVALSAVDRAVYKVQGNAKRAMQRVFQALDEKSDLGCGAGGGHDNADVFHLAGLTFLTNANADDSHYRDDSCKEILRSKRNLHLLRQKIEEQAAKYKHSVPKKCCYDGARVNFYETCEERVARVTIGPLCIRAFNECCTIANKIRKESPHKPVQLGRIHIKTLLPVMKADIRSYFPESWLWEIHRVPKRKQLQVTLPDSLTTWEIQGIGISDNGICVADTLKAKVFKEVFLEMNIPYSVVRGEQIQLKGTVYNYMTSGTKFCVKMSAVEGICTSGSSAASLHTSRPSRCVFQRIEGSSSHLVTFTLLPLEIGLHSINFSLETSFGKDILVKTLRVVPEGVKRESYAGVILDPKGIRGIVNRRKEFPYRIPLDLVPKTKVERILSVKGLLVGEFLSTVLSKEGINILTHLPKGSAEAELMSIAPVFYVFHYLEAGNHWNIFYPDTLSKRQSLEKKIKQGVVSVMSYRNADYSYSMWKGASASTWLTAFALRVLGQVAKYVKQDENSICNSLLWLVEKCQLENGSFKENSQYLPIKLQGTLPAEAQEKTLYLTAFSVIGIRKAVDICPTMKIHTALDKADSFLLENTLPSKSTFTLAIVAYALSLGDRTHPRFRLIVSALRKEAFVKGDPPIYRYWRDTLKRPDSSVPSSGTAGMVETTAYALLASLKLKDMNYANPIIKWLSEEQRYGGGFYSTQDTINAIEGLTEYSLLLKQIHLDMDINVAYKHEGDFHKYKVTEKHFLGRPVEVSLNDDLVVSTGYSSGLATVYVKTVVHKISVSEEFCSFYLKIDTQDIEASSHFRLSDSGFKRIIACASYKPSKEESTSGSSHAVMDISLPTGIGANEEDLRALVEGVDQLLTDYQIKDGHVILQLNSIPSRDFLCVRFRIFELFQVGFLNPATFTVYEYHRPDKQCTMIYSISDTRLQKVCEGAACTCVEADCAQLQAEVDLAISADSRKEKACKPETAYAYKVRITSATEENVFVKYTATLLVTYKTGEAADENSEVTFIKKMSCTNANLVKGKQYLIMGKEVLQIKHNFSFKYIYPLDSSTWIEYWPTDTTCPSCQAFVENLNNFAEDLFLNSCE
T1 sequence (P08650 19-1681): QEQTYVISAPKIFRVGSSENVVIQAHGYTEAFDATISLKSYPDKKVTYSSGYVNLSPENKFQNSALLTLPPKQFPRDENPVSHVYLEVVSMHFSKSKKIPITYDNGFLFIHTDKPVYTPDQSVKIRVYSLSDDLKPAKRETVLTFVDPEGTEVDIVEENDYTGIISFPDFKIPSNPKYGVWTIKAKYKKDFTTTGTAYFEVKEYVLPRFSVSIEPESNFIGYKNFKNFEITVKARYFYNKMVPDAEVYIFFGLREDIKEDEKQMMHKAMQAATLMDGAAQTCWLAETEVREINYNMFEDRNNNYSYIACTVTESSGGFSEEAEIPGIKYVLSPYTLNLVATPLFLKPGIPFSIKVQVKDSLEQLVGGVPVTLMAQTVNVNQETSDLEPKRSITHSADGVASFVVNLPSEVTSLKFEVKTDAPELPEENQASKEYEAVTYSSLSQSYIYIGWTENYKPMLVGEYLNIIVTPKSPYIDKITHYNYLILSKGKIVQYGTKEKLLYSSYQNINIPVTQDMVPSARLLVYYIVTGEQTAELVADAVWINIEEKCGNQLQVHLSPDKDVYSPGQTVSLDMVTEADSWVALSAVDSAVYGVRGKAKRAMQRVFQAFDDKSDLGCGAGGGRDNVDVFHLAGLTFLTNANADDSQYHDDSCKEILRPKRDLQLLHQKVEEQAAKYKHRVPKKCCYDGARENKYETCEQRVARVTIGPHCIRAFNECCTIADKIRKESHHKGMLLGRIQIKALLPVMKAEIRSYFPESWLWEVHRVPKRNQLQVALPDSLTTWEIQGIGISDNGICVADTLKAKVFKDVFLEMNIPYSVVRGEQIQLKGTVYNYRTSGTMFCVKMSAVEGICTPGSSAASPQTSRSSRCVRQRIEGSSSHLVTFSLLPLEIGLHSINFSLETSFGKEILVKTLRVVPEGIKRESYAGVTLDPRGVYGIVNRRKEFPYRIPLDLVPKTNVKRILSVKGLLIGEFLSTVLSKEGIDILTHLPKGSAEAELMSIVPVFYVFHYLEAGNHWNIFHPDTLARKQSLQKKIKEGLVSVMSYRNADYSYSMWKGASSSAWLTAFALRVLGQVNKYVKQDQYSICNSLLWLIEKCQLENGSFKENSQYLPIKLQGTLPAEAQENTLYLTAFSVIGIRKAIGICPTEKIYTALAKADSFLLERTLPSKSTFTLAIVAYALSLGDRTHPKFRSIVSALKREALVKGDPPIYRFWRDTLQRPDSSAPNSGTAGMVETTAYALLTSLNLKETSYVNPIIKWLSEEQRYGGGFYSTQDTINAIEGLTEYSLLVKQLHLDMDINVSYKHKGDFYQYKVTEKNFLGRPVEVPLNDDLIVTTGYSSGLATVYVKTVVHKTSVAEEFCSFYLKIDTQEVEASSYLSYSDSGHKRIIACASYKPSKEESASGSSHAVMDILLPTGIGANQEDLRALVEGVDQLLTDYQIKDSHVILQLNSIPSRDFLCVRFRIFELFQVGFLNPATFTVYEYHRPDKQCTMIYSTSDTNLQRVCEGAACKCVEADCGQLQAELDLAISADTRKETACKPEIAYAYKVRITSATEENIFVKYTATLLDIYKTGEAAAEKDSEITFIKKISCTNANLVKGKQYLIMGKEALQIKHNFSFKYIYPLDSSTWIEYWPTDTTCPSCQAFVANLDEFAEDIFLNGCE

In the case of “EV576: Lipocalin protein from salivary glands of the tick Ornithodoros moubata, sequence of FIG. 2; binds complement C5 and LTB4”, the “IC50 for binding C5 and preventing its cleavage by C5 convertase” value (shortened to “IC50”) (C5 [1]) is given as “approximately 0.02 mg/ml”, the “IC50” value (C5 [2]) is given as “approximately 0.02 mg/ml” and the “IC50” value (C5 [3]) is given as “approximately 0.02 mg/ml”. The “inhibition of the complement system” value [4] was “inhibits the alternative, classical and lectin complement pathways”.
